The results in this text go back to paper PMC7116145 (Science (New York, N.Y.), 2020).

The target in assay [1] is T1, human glutamate receptor D2 amino-terminal domain (human, UniProt O43424 24-440).
T1 sequence (looked up): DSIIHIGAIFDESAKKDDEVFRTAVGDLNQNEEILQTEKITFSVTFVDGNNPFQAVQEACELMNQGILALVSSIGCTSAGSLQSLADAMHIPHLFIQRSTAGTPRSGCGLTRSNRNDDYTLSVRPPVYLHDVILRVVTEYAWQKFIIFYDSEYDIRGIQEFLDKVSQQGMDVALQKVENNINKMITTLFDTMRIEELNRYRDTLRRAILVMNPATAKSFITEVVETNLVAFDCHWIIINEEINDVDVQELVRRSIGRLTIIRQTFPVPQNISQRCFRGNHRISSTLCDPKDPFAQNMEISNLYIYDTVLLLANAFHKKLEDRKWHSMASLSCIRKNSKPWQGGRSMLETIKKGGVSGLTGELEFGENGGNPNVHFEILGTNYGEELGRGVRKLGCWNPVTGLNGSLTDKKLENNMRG
In words: SPR. In general terms: SPR reads the build-up and loss of mass on a sensor chip optically.

Assay [2] concerns the target T2, mouse glutamate receptor A4 amino-terminal domain (mouse, UniProt Q9Z2W8 21-420).
T2 sequence (looked up): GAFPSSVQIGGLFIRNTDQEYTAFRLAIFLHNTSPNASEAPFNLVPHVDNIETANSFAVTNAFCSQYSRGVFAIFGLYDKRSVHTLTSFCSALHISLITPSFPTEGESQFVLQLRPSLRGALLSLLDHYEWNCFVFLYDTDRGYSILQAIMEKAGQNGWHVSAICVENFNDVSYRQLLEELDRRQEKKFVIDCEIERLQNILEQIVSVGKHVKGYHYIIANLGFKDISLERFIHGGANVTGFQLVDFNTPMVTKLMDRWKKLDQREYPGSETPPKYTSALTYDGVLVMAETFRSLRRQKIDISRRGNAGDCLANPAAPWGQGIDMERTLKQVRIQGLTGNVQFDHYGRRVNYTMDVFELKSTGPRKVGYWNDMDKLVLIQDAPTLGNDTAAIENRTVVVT
In words: SPR.

B1: Cbln1, biotinylated on a C-terminal Avitag (immobilised in SPR) (natural protein, UniProt P23435 22-193, looked up)
chain: QNETEPIVLEGKCLVVCDSNPTSDPTGTALGISVRSGSAKVAFSAIRSTNHEPSEMSNRTMIIYFDQVLVNIGNNFDSERSTFIAPRKGIYSFNFHVVKVYNRQTIQVSLMLNGWPVISAFAGDQDVTREAASNGVLIQMEKGDRAYLKLERGNLMGGWKYSTFSGFLVFPL
modifications: biotin on the Avitag (in vivo biotinylation by BirA)
For the molecule B1, the dissociation constant (Kd) (commonly the free concentration of one partner at which half of the binding sites on the other are occupied at equilibrium, for simple one-to-one binding) in assay [1] is over 100 µM.

B2: pentraxin domain of human neuronal pentraxin-1, biotinylated on a C-terminal Avitag (immobilised in SPR) (domain or fragment, UniProt Q15818 224-431, looked up)
chain: PGDKFQLTFPLRTNYMYAKVKKSLPEMYAFTVCMWLKSSATPGVGTPFSYAVPGQANELVLIEWGNNPMEILINDKVAKLPFVINDGKWHHICVTWTTRDGVWEAYQDGTQGGSGENLAPYHPIKPQGVLVLGQEQDTLGGGFDATQAFVGELAHFNIWDRKLTPGEVYNLATCSTKALSGNVIAWAESHIEIYGGATKWTFEACRQI
modifications: biotin on the Avitag (in vivo biotinylation by BirA)
Turning to B2, in assay [2], binding was put at a Kd of 11 ± 0.9 µM.
